Where no end group is shown, it is not given here. The star is where a group is joined. Biotin = O=C1N[C@H]2[C@H](CS[C@H]2CCCCC(=O)*)N1
T1: naked peptide 1b MEDYVNFNFTDFYCEKNNVRQFAS (human)
T1 construct: also called region amino acids 25 to 48
T1 peptide: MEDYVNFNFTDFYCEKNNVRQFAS

T2: naked peptide 1a MTPTDFTSPIPNMADDYGSESTSS (human)
T2 construct: also called region 1-24
T2 peptide: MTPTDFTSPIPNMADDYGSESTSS

T3: Pep1-48, N-terminal domain 1 of CCR9, amino acids 1 to 48 (human)
T3 construct: Chemically synthesized (Genscript), purity >75%; also called CCR9 N-terminal 1-48 peptide
T3 peptide: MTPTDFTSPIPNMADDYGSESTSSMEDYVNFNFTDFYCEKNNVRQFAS

T4: biotin-peptide TDFYCEKNNV (human)
T4 peptide: Biotin-TDFYCEKNNV

T5: biotin-peptide KNNVRQFAS (human)
T5 peptide: Biotin-KNNVRQFAS

T6: biotin-peptide MADDYGSEST (human)
T6 peptide: Biotin-MADDYGSEST

T7: biotin-peptide SESTSSMEDY (human)
T7 peptide: Biotin-SESTSSMEDY

T8: biotin-peptide TSPIPNMADD (human)
T8 peptide: Biotin-TSPIPNMADD

T9: biotin-peptide MTPTDFTSPI (human, also: prints MTPTDFTSP, without I10)
T9 peptide: Biotin-MTPTDFTSPI

T10: biotin-peptide MEDYVNFNFT (human)
T10 peptide: Biotin-MEDYVNFNFT

T11: biotin-peptide YVNFNFTDFY (human)
T11 peptide: Biotin-YVNFNFTDFY

T12: biotin-peptide IPNMADDYGS (human)
T12 peptide: Biotin-IPNMADDYGS

T13: biotin-peptide SSMEDYVNFN (human)
T13 peptide: Biotin-SSMEDYVNFN

T14: biotin-peptide FNFTDFYCEK (human)
T14 peptide: Biotin-FNFTDFYCEK

T15: biotin-peptide DYGSESTSSM (human)
T15 peptide: Biotin-DYGSESTSSM

T16: biotin-peptide TSSMEDYVNF (human)
T16 peptide: Biotin-TSSMEDYVNF

T17: biotin-peptide YCEKNNVRQF (human)
T17 peptide: Biotin-YCEKNNVRQF

T18: biotin-peptide TDFTSPIPNM (human)
T18 peptide: Biotin-TDFTSPIPNM

T19: biotin-peptide SMEDYVNFNF (human)
T19 peptide: Biotin-SMEDYVNFNF

T20: naked peptide MEDYVNFNFT (human)
T20 peptide: MEDYVNFNFT


How the values were obtained:
[1] = biological target: T1, naked peptide 1b …; assay: ELISA naked 24-mer; repII
[2] = biological target: T2, naked peptide 1a …; assay: ELISA naked 24-mer; repII
[3] = biological target: T3, Pep1-48, N-terminal domain 1 of CCR9, …; assay: BLI, scFv on NTA biosensor, 1:1 global fit
Description: The affinity between the CCR9-N-terminal domain 1 of CCR9 and the different scFvs was determined by Bio-Layer Interferometry (BLI), a technique that allows quantitative and qualitative measurement of biomolecular interactions in real-time. Briefly, scFv were immobilized onto NTA Biosensor (Sartorius) and quantification was performed in an Octet RED384 (Sartorius). scFv were dissolved in PBS (150 mM NaCl, 38 mM Na2HPO4, 12 mM NaH2PO4, pH 7.2) and a buffer containing 0.03% Tween-20 in PBS, pH 7.2 was used for baseline steps.

[4] = biological target: T4, biotin-peptide TDFYCEKNNV; assay: ELISA biotin-peptide; scFv 10 ug/mL; repI
Description: (§1) The peptides were synthesized naked or with a N-terminal Biotin modification with a purity of >98%. All four scFvs were verified by ELISA that can be detected with anti-His antibodies. ELISA was performed for scFv-peptide binding validation. Briefly, naked peptides were coated (50 μg/mL) in 0.58M carbonate-bicarbonate buffer pH9.5, 100 μL/well, 4° C. O/N. Then after blocking (3% BSA-PBS, 300 μL/well 37° C. 1.5 h) and washing (PBS+Tween-20 0.05% v/v (0.05% PBST), wells were incubated with each purified scFv antibody at concentration of 1 μg/mL in PBS at 37° C. 1 h. After washing (0.05% PBST), wells were incubated with secondary antibodies (goat anti-His IgG-HRP) in PBS, 37° C., 30 min. After washing, and incubation with TMB substrate, reactions were stopped with 2M HCl and reading was quantified at OD450.
(§2) Then a library of overlapping peptides were designed and constructed separately to produce 16 different peptides, covering full antigen sequence of total 48 aa. Peptide size was 10aa, with 7aa overlapping and ELISA screening of scFv against each peptide was performed in duplicate. Screening was performed using naked peptides in a standard plate or biotinylated peptides using avidin-plates. The list of overlapping peptides was as follows:
(§3) ELISA with biotin-conjugated peptides (5 μg/mL) was performed very similar to described above with minor modifications.

biotin-peptide KNNVRQFAS = biological target: T5, biotin-peptide KNNVRQFAS; assay: ELISA biotin-peptide; scFv 10 ug/mL; repI
Description: as §1, §2, §3

[5] = biological target: T6, biotin-peptide MADDYGSEST; assay: ELISA biotin-peptide; scFv 10 ug/mL; repI
Description: as §1, §2, §3

[6] = biological target: T7, biotin-peptide SESTSSMEDY; assay: ELISA biotin-peptide; scFv 10 ug/mL; repI
Description: as §1, §2, §3

[7] = biological target: T8, biotin-peptide TSPIPNMADD; assay: ELISA biotin-peptide; scFv 10 ug/mL; repI
Description: as §1, §2, §3

[8] = biological target: T9, biotin-peptide MTPTDFTSPI; assay: ELISA biotin-peptide; scFv 10 ug/mL; repI
Description: as §1, §2, §3

[9] = biological target: T10, biotin-peptide MEDYVNFNFT; assay: ELISA biotin-peptide; scFv 10 ug/mL; repI
Description: as §1, §2, §3

[10] = biological target: T11, biotin-peptide YVNFNFTDFY; assay: ELISA biotin-peptide; scFv 10 ug/mL; repI
Description: as §1, §2, §3

[11] = biological target: T12, biotin-peptide IPNMADDYGS; assay: ELISA biotin-peptide; scFv 10 ug/mL; repI
Description: as §1, §2, §3

[12] = biological target: T13, biotin-peptide SSMEDYVNFN; assay: ELISA biotin-peptide; scFv 10 ug/mL; repI
Description: as §1, §2, §3

[13] = biological target: T14, biotin-peptide FNFTDFYCEK; assay: ELISA biotin-peptide; scFv 10 ug/mL; repI
Description: as §1, §2, §3

[14] = biological target: T15, biotin-peptide DYGSESTSSM; assay: ELISA biotin-peptide; scFv 10 ug/mL; repI
Description: as §1, §2, §3

[15] = biological target: T16, biotin-peptide TSSMEDYVNF; assay: ELISA biotin-peptide; scFv 10 ug/mL; repI
Description: as §1, §2, §3

[16] = biological target: T17, biotin-peptide YCEKNNVRQF; assay: ELISA biotin-peptide; scFv 10 ug/mL; repI
Description: as §1, §2, §3

[17] = biological target: T18, biotin-peptide TDFTSPIPNM; assay: ELISA biotin-peptide; scFv 10 ug/mL; repI
Description: as §1, §2, §3

[18] = biological target: T19, biotin-peptide SMEDYVNFNF; assay: ELISA biotin-peptide; scFv 10 ug/mL; repI
Description: as §1, §2, §3

naked peptide MEDYVNFNFT = biological target: T20, naked peptide MEDYVNFNFT; assay: ELISA naked peptide; scFv 1 ug/mL; repII
Description: as §1
as §2, with “avidin-plates.” for “avidin-plates. The list of overlapping peptides was as follows:”

[19] = biological target: T1, naked peptide 1b …; assay: ELISA naked 24-mer; repI
[20] = biological target: T2, naked peptide 1a …; assay: ELISA naked 24-mer; repI

Row | Binder | OD450 [1] [OD] | OD450 [2] [OD] | OD450 [4] [OD] | OD450 (biotin-peptide KNNVRQFAS) [OD] | OD450 [5] [OD] | OD450 [6] [OD] | OD450 [7] [OD] | OD450 [8] [OD] | OD450 [9] [OD] | OD450 [10] [OD] | OD450 [11] [OD] | OD450 [12] [OD] | OD450 [13] [OD] | OD450 [14] [OD] | OD450 [15] [OD] | OD450 [16] [OD] | OD450 [17] [OD] | OD450 [18] [OD] | OD450 (naked peptide MEDYVNFNFT) [OD] | OD450 [19] [OD] | further results
1 | Comparative antibody 3 (Comp-3) scFv, SR_92R (Somovilla-Crespo et al. 2018), His-tagged (scFv) scFv: EVKLEESGGGLVQPGGSMKLSCVASGFTFNKFWMNWVRQSPEKGLEWVAEIRLKSNNYATHYAESVKGRFTISRDDSKSSVYLQMNNLRAEDTGIYYCASDGWFAYWGQGTLVTVSAGGGGSGGGGSGGGGSGGGGSDVVMTQTPLSLPVSLGDQASISCRSSQSLVHSNGNTYLNWCLQRPGQSPKSLIYKVSNRFSGVPDRFSGSGSGTDFTLKISRVEAEDLGVYFCSQSTHFPRTFGGGTKLEIKRHHHHHH | 0.09 | 1.35 | 0.08 | 0.09 | 0.09 | 0.15 | 1.6 | 0.1 | 0.1 | 0.1 | 1.59 | 0.15 | 0.09 | 0.12 | 0.1 | 0.11 | 0.11 | 0.1 | 0.06 | 0.11 | Kd [3]: 33.1 nM; koff [3]: 0.012 s⁻¹; kon [3]: 364000 M⁻¹ s⁻¹; OD450 [20]: 1.38 OD
2 | CCR9_HUM2 scFv (humanized anti-CCR9 scFv, SEQ ID NO: 17 with C-terminal 6xHis tag) (scFv) scFv: QVQLVQSGAEVKKPGASVKVSCTASGYSFTDYIIYWVKQAHGQSLEWMGYIDPNNYNTRYSQKFQGKVTITVDKSSTSAYMELNSLTSDDTAVYYCARDVYWGQGTTVTVSSGGGGSGGGGSGGGGSGGGGSDVVMTQTPLSLSVTPGQPASISCRSSQSLVHSNGKTYLQWYLQKPGQSPKLLIYKVSNRFSGVPDRFSGSGSGTDFTLKISRVEAEDVGVYFCAQSTHVWTFGGGTKVEIKRAHHHHHH | 2.24 | 0.08 | 0.08 | 0.07 | 0.09 | 0.08 | 0.09 | 0.09 | 2.56 | 0.17 | 0.14 | 2.45 | 0.05 | 0.09 | 2.05 | 0.07 | 0.12 | 2.48 | 0.86 | 2.22 | Kd [3]: 6.25 nM; koff [3]: 0.00168 s⁻¹; kon [3]: 268000 M⁻¹ s⁻¹; OD450 [20]: 0.05 OD

Second part, led by results:

Row | OD450 [1] [OD] | OD450 [2] [OD] | OD450 [4] [OD] | OD450 (biotin-peptide KNNVRQFAS) [OD] | OD450 [5] [OD] | OD450 [6] [OD] | OD450 [7] [OD] | OD450 [8] [OD] | OD450 [9] [OD] | OD450 [10] [OD] | OD450 [11] [OD] | OD450 [12] [OD] | OD450 [13] [OD] | OD450 [14] [OD] | OD450 [15] [OD] | OD450 [16] [OD] | OD450 [17] [OD] | OD450 [18] [OD] | OD450 (naked peptide MEDYVNFNFT) [OD] | OD450 [19] [OD] | Binder | further results
3 | 0.06 | 0.1 | 0.08 | 0.05 | 0.08 | 0.13 | 0.13 | 0.08 | 0.16 | 0.1 | 0.16 | 0.1 | 0.06 | 0.1 | 0.1 | 0.06 | 0.06 | 0.15 | 0.06 | 0.09 | Comparative antibody 1 (Comp-1) scFv, SEQ ID NO: 10 from WO2023/037125 A1, His-tagged (scFv) scFv: QVQLKESGPGLVQPSQTLSLTCTVSGFSVASYDMHWVRLPPGKGLEWMGIIWANGNTHYNSGLKSRLSISRDTSKSQVFLKMNSLQTEDTAIYFCTRGGFAYWGQGTLVTVSSGGGGSGGGGSGGGGSGGGGSDVVMTQTPVSLSVSLGGQVSISCRSSQSLVHNNGNTYLSWYLQKPGQSPQLLIYKVSNRFSGVSDRFSGSGSGTDFTLKISRVEPDDLGVYYCGQGTQYPTFGGGTKLELKHHHHHH | OD450 [20]: 0.08 OD
4 | 2.01 | 0.08 | 0.06 | 0.08 | 0.08 | 0.06 | 0.04 | 0.08 | 0.1 | 1.93 | 0.1 | 0.12 | 1.45 | 0.09 | 0.08 | 0.09 | 0.1 | 0.09 | 0.04 | 1.97 | Comparative antibody 2 (Comp-2) scFv, 243LO326 (VH SEQ ID NO: 51 and VL SEQ ID NO: 52 of WO 2022/195028 A2), His-tagged (scFv) scFv: QVQLVQSGAEVKKPGASVKVSCKASGYTFTSYWMHWVRQAPGQGLEWIGVIYPGNSDTRYNQKFKGRVTITRDTSASTAYMELSSLRSEDTAVYYCTRDYYSNYVYYYAMDYWGQGTTVTVSSGGGGSGGGGSGGGGSGGGGSDIVMTQTPLSLPVTPGEPASISCRSSQSLVHPNRNTYLHWYLQKPGQSPQLLIYKVSNRFSGVPDRFSGSGSGTDFTLKISRVEAEDVGVYYCSQSTHVPWTFGQGTKLEIKHHHHHH | Kd [3]: 61.4 nM; koff [3]: 0.0152 s⁻¹; kon [3]: 248000 M⁻¹ s⁻¹; OD450 [20]: 0.09 OD

From patent US20260232732A1 (FUNDACI INSTITUT DE RECERCA CONTRA LA LEUC MIA JOSEP …, published 2026)
